± gives the uncertainty stated by the source.

The record followed here is the supplement of paper PMC7877785.

This data set in a line: self-splicing fitness, log relative to wild type (ln ratio); higher = more splicing; Tetrahymena group I intron in knt gene, E. coli kanamycin selection, DiMSum; sequences stand for … in CUCUCU…GGAGGGAAAAGUUAUCAGGCAUGCACCUGGUAGCUAGUCUUUAAACCAAUAGAUUGCAUCGGUUUAAAAGGCAAGACCGUCAAAUUGCGGGAAAGGGGUCAACAGCCGUUCAGUACCAAGUCUCAGGGGAAACUUUGAGAUGGCCUUGCAAAGGGUAUGGUAAUAAGCUGACGGACAUGGUCCUAACCACGCAGCCAAGUCCUAAGUCAACAGAUCUUCUGUUGAUAUGGAUGCAGUUCACAGACUAAAUGUCGGUCGGGGAAGAUGUAUUCUUCUCAUAAGAUAUAGUCGGACCUCUCCUUAAUGGGAGCUAGCGGAUGAAGUGAUGCAACACUGGAGCCGCUGGGAACUAAUUUGUAUGCGAAAGUAUAUUGAUUAGUUUUGGAGUACUCGUGGUCG
The procedure, abridged: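 Six replicate transformations of E. coli BL21(DE3) with a pET-22b(+) library were grown overnight at 37°C or 30°C. The library randomised all eight P1ex-region intron nucleotides, the intron lying in the knt kanamycin-resistance gene, and plates were LB agar with or without 25 μg/mL kanamycin plus 100 μg/mL carbenicillin, 50 μM IPTG and 0.2% rhamnose. Pooled colonies were amplicon-sequenced on an Illumina HiSeq 2500, and fitness is the DiMSum error-weighted combination of wild-type-normalised replicate fold changes, kanamycin versus none.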

For GAGGAGCAAUAUUACGUGAC, the “self-splicing fitness (ln)” value by setting is: (30 °C) -1.97 ± 0.3; (37 °C) -0.137 ± 0.26. For GGCUAGCAAUAUUACGUCCG, in that order: -2.88 ± 0.3 and -0.381 ± 0.17. Consider CAGCAGCAAUAUUACGGCUG, for which the “self-splicing fitness (ln)” value (30 °C) is -4.48 ± 0.25 and the “self-splicing fitness (ln)” value (37 °C) was -1.82 ± 0.19.

In the case of CGGGAGCAAUAUUACGCAAC, the “self-splicing fitness (ln)” value (30 °C) was -2.66 ± 0.24. Turning to CAGAAGCAAUAUUACGAGUC, the “self-splicing fitness (ln)” value runs as follows: (30 °C) -3.79 ± 0.48; (37 °C) -2.16 ± 0.32. The corresponding values for AUCCAGCAAUAUUACGAUAU are -0.123 ± 0.075 and -0.114 ± 0.071. AGCUAGCAAUAUUACGGCUC: the “self-splicing fitness (ln)” value (30 °C) is -3.32 ± 0.37 and the “self-splicing fitness (ln)” value (37 °C) is -3.06 ± 0.43.

On to GAGGAGCAAUAUUACGUCGA, for which the “self-splicing fitness (ln)” value is, setting by setting: (30 °C) -2.17 ± 0.16; (37 °C) -1.61 ± 0.15.

As for ACUUAGCAAUAUUACGGACC, the “self-splicing fitness (ln)” value (30 °C) was -0.607 ± 0.15 and the “self-splicing fitness (ln)” value (37 °C) was -0.756 ± 0.25. For AGGCAGCAAUAUUACGGUCU, in that order: -3.15 ± 0.24 and -2.61 ± 0.25.

Regarding CUGAAGCAAUAUUACGGCAA, the “self-splicing fitness (ln)” value is -3.04 ± 0.2 (30 °C) and -1.21 ± 0.2 (37 °C).

Regarding UGAAAGCAAUAUUACGCCAU, the “self-splicing fitness (ln)” value was -3.11 ± 0.3 (30 °C) and -3.23 ± 0.33 (37 °C). Take GCGGAGCAAUAUUACGACGU: the “self-splicing fitness (ln)” value by setting is: (30 °C) -4.57 ± 0.46; (37 °C) -2.5 ± 0.3.

With CGUCAGCAAUAUUACGCUAG, the “self-splicing fitness (ln)” value is, setting by setting: (30 °C) -0.963 ± 0.098; (37 °C) -0.795 ± 0.15. For CAGGAGCAAUAUUACGCGCG, in that order: -1.45 ± 0.14 and -0.0818 ± 0.14. Consider UCGCAGCAAUAUUACGUUAG, for which the “self-splicing fitness (ln)” value by setting is: (30 °C) -2.74 ± 0.15; (37 °C) -1.63 ± 0.17. On to AGUUAGCAAUAUUACGUUCC, for which the “self-splicing fitness (ln)” value is -0.837 ± 0.14 (30 °C) and -0.127 ± 0.18 (37 °C). The corresponding values for GUCCAGCAAUAUUACGCAAA are -1.46 ± 0.12 and -0.457 ± 0.11. Turning to CAUAAGCAAUAUUACGCCGC, the “self-splicing fitness (ln)” value is, setting by setting: (30 °C) -2.82 ± 0.38; (37 °C) -1.59 ± 0.47. For AACCAGCAAUAUUACGUGCC, the “self-splicing fitness (ln)” value is, setting by setting: (30 °C) -1.44 ± 0.063; (37 °C) -0.956 ± 0.079. Regarding UUGAAGCAAUAUUACGUUCC, where the note is “37 °C”, the “self-splicing fitness (ln)” value is -2.79 ± 0.35.

As for CGCCAGCAAUAUUACGAUGG, the “self-splicing fitness (ln)” value (30 °C) was -3.09 ± 0.15 and the “self-splicing fitness (ln)” value (37 °C) was -2.72 ± 0.23.

Regarding UUACAGCAAUAUUACGCUUG, the “self-splicing fitness (ln)” value is, setting by setting: (30 °C) -1.23 ± 0.12; (37 °C) -0.126 ± 0.13. The corresponding values for ACUCAGCAAUAUUACGAACU are -0.166 ± 0.053 and 0.599 ± 0.066. On to CCUAAGCAAUAUUACGGUAA, for which the “self-splicing fitness (ln)” value (30 °C) was -2.48 ± 0.24 and the “self-splicing fitness (ln)” value (37 °C) was -2.73 ± 0.25. The corresponding values for ACGGAGCAAUAUUACGAGAU are -3.66 ± 0.21 and 0.0618 ± 0.16. Turning to GUGCAGCAAUAUUACGGCAU, the “self-splicing fitness (ln)” value was -2.93 ± 0.2 (30 °C) and -1.64 ± 0.18 (37 °C). For GGCCAGCAAUAUUACGUAGG, in that order: -2.19 ± 0.14 and -1.85 ± 0.18.

Consider AUAAAGCAAUAUUACGACCC, for which the “self-splicing fitness (ln)” value (30 °C) amounted to 0.352 ± 0.21 and the “self-splicing fitness (ln)” value (37 °C) amounted to 0.804 ± 0.26. On to AUAUAGCAAUAUUACGCAGA, for which the “self-splicing fitness (ln)” value runs as follows: (30 °C) -2.82 ± 0.31; (37 °C) -1.42 ± 0.21. As for AAUUAGCAAUAUUACGUUAC, the “self-splicing fitness (ln)” value (30 °C) was -3.18 ± 0.15 and the “self-splicing fitness (ln)” value (37 °C) is -1.74 ± 0.17.

With ACCUAGCAAUAUUACGCGGU, the “self-splicing fitness (ln)” value (30 °C) is -4.32 ± 0.46 and the “self-splicing fitness (ln)” value (37 °C) is -2.48 ± 0.31. For CUUGAGCAAUAUUACGGAAU, in that order: -2.85 ± 0.41 and -2.3 ± 0.48. Regarding UUAAAGCAAUAUUACGGAAA, the “self-splicing fitness (ln)” value reads like this: (30 °C) -0.926 ± 0.092; (37 °C) -1.29 ± 0.12. GAAUAGCAAUAUUACGGCCU: the “self-splicing fitness (ln)” value by setting is: (30 °C) -0.86 ± 0.075; (37 °C) 0.112 ± 0.12. On to AUGUAGCAAUAUUACGAGAU, for which the “self-splicing fitness (ln)” value is, setting by setting: (30 °C) -2.04 ± 0.14; (37 °C) -0.409 ± 0.13. The corresponding values for UGGUAGCAAUAUUACGACGA are -0.462 ± 0.14 and 1.24 ± 0.19. On to GUUGAGCAAUAUUACGAUGA, for which, for the setting “37 °C”, the “self-splicing fitness (ln)” value was -2.27 ± 0.42. For the sequence UCGAAGCAAUAUUACGGAGA, the “self-splicing fitness (ln)” value is, setting by setting: (30 °C) -2.69 ± 0.24; (37 °C) -2.44 ± 0.32.

Regarding GGUAAGCAAUAUUACGGUUG, the “self-splicing fitness (ln)” value (30 °C) was -3.76 ± 0.39. On to AAAUAGCAAUAUUACGUUUU, for which the “self-splicing fitness (ln)” value reads like this: (30 °C) -2.81 ± 0.11; (37 °C) -1.05 ± 0.099. As to GGCAAGCAAUAUUACGAACC, the “self-splicing fitness (ln)” value runs as follows: (30 °C) -2.41 ± 0.36; (37 °C) -0.982 ± 0.24. Take UAAUAGCAAUAUUACGGACU: the “self-splicing fitness (ln)” value runs as follows: (30 °C) -1.25 ± 0.15; (37 °C) -1.43 ± 0.18.

As for UCGCAGCAAUAUUACGCUGA, the “self-splicing fitness (ln)” value runs as follows: (30 °C) -2.33 ± 0.21; (37 °C) -1.15 ± 0.14. Regarding UCACAGCAAUAUUACGGGCU, the “self-splicing fitness (ln)” value by setting is: (30 °C) -4 ± 0.18; (37 °C) -3.47 ± 0.16.

On to AUGAAGCAAUAUUACGUAGU, for which the “self-splicing fitness (ln)” value runs as follows: (30 °C) -1.91 ± 0.062; (37 °C) -0.665 ± 0.092. The corresponding values for AACUAGCAAUAUUACGAUAC are -3.15 ± 0.23 and -1.24 ± 0.34. For AUAUAGCAAUAUUACGACCU, in that order: -0.348 ± 0.14 and 0.267 ± 0.15. Turning to UUGAAGCAAUAUUACGAUGA, the “self-splicing fitness (ln)” value runs as follows: (30 °C) 0.15 ± 0.075; (37 °C) 0.161 ± 0.099.

For the sequence UCGGAGCAAUAUUACGCUAC, the “self-splicing fitness (ln)” value (30 °C) was -2.11 ± 0.34. Take AAUUAGCAAUAUUACGAUGA: the “self-splicing fitness (ln)” value is, setting by setting: (30 °C) -0.632 ± 0.094; (37 °C) -0.429 ± 0.11. On to ACGGAGCAAUAUUACGCCAU, for which, for the setting “30 °C”, the “self-splicing fitness (ln)” value is -2.63 ± 0.25. For the sequence UUAGAGCAAUAUUACGUACG, the “self-splicing fitness (ln)” value by setting is: (30 °C) -0.844 ± 0.11; (37 °C) -1.06 ± 0.17. For the sequence GUGAAGCAAUAUUACGCCAU, the “self-splicing fitness (ln)” value was -2.07 ± 0.13 (30 °C) and -1.14 ± 0.15 (37 °C). The corresponding values for GUCCAGCAAUAUUACGCGUG are -1.04 ± 0.063 and -0.469 ± 0.068. The corresponding values for AUUCAGCAAUAUUACGUCAG are -2.51 ± 0.15 and -1.67 ± 0.22. The corresponding values for AUAAAGCAAUAUUACGGCCC are 0.659 ± 0.39 and 0.503 ± 0.43. In the case of UCGCAGCAAUAUUACGAUGA, the “self-splicing fitness (ln)” value is -0.691 ± 0.072 (30 °C) and 0.0326 ± 0.081 (37 °C). For UGACAGCAAUAUUACGCCAG, in that order: -1.56 ± 0.12 and -0.793 ± 0.14. For GGCGAGCAAUAUUACGUUUA, in that order: -1.4 ± 0.087 and -0.372 ± 0.11. The corresponding values for AGACAGCAAUAUUACGAGGU are -3.46 ± 0.16 and -1.87 ± 0.13. CAAUAGCAAUAUUACGGGAC: the “self-splicing fitness (ln)” value (30 °C) is -2.83 ± 0.34 and the “self-splicing fitness (ln)” value (37 °C) is -2.63 ± 0.27. GGUAAGCAAUAUUACGCGGC: the “self-splicing fitness (ln)” value runs as follows: (30 °C) -2.84 ± 0.19; (37 °C) -1.29 ± 0.2. The corresponding values for GCCAAGCAAUAUUACGCAAA are -1.13 ± 0.11 and -0.448 ± 0.12. With AAUAAGCAAUAUUACGCCUG, the “self-splicing fitness (ln)” value is, setting by setting: (30 °C) -0.724 ± 0.13; (37 °C) 0.286 ± 0.17. The corresponding values for GAAAAGCAAUAUUACGGCCC are 0.0394 ± 0.14 and 0.473 ± 0.17. On to AGUCAGCAAUAUUACGGAAC, for which the “self-splicing fitness (ln)” value is, setting by setting: (30 °C) -2.87 ± 0.15; (37 °C) -1.89 ± 0.15. The corresponding values for CCGCAGCAAUAUUACGACGA are -0.105 ± 0.077 and -0.259 ± 0.084.

As for AGACAGCAAUAUUACGUUCU, the “self-splicing fitness (ln)” value reads like this: (30 °C) -3.7 ± 0.18; (37 °C) -3.16 ± 0.21.

Turning to GGAGAGCAAUAUUACGUAAG, the “self-splicing fitness (ln)” value (30 °C) is -2.82 ± 0.19 and the “self-splicing fitness (ln)” value (37 °C) was -0.478 ± 0.21. As to AAUAAGCAAUAUUACGCCAG, the “self-splicing fitness (ln)” value is -1.88 ± 0.18 (30 °C) and -0.98 ± 0.25 (37 °C). For GUUUAGCAAUAUUACGCUUG, in that order: -1.18 ± 0.099 and 0.632 ± 0.15.

Consider AAGUAGCAAUAUUACGGUAU, for which the “self-splicing fitness (ln)” value was -2.25 ± 0.097 (30 °C) and -1.88 ± 0.092 (37 °C).

Turning to AGAGAGCAAUAUUACGGCUG, the “self-splicing fitness (ln)” value runs as follows: (30 °C) -0.227 ± 0.24; (37 °C) -2.26 ± 0.49.

With ACCGAGCAAUAUUACGCAUA, the “self-splicing fitness (ln)” value (30 °C) is -2.42 ± 0.21 and the “self-splicing fitness (ln)” value (37 °C) was -2.57 ± 0.2. In the case of GGGAAGCAAUAUUACGUAUC, the “self-splicing fitness (ln)” value was -1.43 ± 0.074 (30 °C) and -1.03 ± 0.11 (37 °C). On to CCACAGCAAUAUUACGCAAC, for which the “self-splicing fitness (ln)” value runs as follows: (30 °C) -2.45 ± 0.36; (37 °C) -1.79 ± 0.33.
